From the DeepSol protein solubility set

Test: soluble on expression in E. coli; label from the status in PepcDB or PDB records

| Sequence | soluble on expression in E. coli |
| --- | --- |
| MLGASRWRRTSAFSGIWRIPMSSNNSSRKVVTVDEQAFERTEDAGVDEDGFKVVDDKPEFRATVQQEKQAKVDSNHPDGIVQDFSHLPLAQEEKIRAREAELDHISAQAELGTQDGRAKRTRKVVTERRQRKRAERTPDRTDPRERLSRMELAKVNQEADRMAQRLRTGHSRAAVSRALAKRVAKGQDITKAVFDTMDALKAAPGAICPIEDVPDVQTDEVSIEGEVVQLWDASSRKIAQVGLVADDTGKIKFTSWRKSEPAFVQEGDTVRMRAVKKNWYEGRCSLAVTYDSMIVFPERDRRWWEELEHHHHHH | not soluble |
| MSDRHFDELATRFAEKIYGGAKGAIRLAVLQADLAEALPERPLRVLDIGAGLGHMSLWLAARGHRVTLAEPAQPMLDGARQRFAEAGQAAEFIQAPWQELLGQLTEPYDLVLCHAVLEWLAEPHAILPVLHQLCAPGGWLSLAFYNRDALIYRNLLKGHFRKLRKERFAGEGQSLTPQRPLDPRELEQALAARWRIEARSGVRVFHDYMPSEFQAKAERLDLVEMELAYRRHPAFAGLGRYLHWLCRPQ | not soluble |
| MAHHHHHHMSLPASHTTTPATASPEVLLAACTAEVQQLRDALHEVTLRERDGCSGSRGGTGGVAGGALGDVWEGKYLAMIRKNRDLTVQLGTTQQQLAAAQKALQAEQEKTQRLVAAVTVSSLGARGAKAGSKSAAGAAGVDDGCNSNSGSKSGGGSSGSEGAAAASSAAVARVYDKLHQKQLAMAEVQRENVALRSLIQREVGLRDDTKEVNRLLRRATAVSSNGGSAAAAAGGTSASGADGGGWRGRAEEIVLLKSKLKDAQREVEEMAAAQSSSENGTDACTDPLSLPASVRAFLGASGDPAAEARSVVTTTTAQVRRPRRDVDDDARDRLSAMQQQRAAQQRQLAADLAELQQQLNEERMRSSALQARTKTMKSELDTLRSYVDTILEKSSTDDELVEAYKTELQRAHEEARHWRRVAADALKEAGGGKTSAALTVSGVHNGLNNAAAAAVRTAPYRKAAGDEKAVAAGGGDAGNVRGAPLPLPPPQPLTSFSRSLYEWVCQACDEVPEGKEQERTEPAVAASAKQLAAVLRQAFQHLVLVEQHTVAGNDMGHASTDSASSESILLKENAALKTRIRALSELMEKELQAQRVLWATAAAGAGATPSTETKERERQQ | not soluble |
| MEEEQLLDYEEEQEEIQDKQPEVGGGDARKTKGTYASIHSSGFRDFLLKPEILRAIGDCGFEHPSEVQHECIPQAILGMDVVCQAKSGMGKTAVFVITTLQQLEPVDGEVSVVCMCHTRELAFQISKEYERFSKYLPGVKVAVFFGGMAIKKDEERLANDCPHIVVGTPGRMLALARSGKLKLDKVKYFVLDECDKMIGDADMRRDVQEIVKMTPQQKQVMMFSATLPKELRTVCKRFMQDPMEVYVDDEAKLTLHGLQQHYVKLKEAEKNRRLLNLLDALEFNQVVIFVKAVKRCEALHQLLTEQNFPSIAIHRQMAQEERLSRYQAFKDFQKRILVATDLFGRGMDIERVNIVFNYDMPEDSDSYLHRVARAGRFGTKGLAITFVSDENDAKTLNSVQDRFDISITELPEKIDVSTYIEGRTN | not soluble |
| MELKKLMGHISIIPDYRQAWKMEHKLSDILLLTICAVISGAEGWEDIEDFGETHPDFLKQYGDFENGIPVHDTIARVVSCISPAKFHECFINWMRDCHSSDDKDVIAIDGKTLRHSYDKSRRRGAIHVISAFSTMHSLVIGQIKTDEKSNEITAIPELLNMLDIKGKIITTDAMGCQKDIAEKIQKQGGDYLFAVKGNQGRLNKAFEEKFPLKELNNPAHDSYAMSEKSHGREEIRLHIVCDVPDELIDFTFEWKGLKKLCVAVSFRSIIAEQKKELEMTVRYYISSADLTAEKFATAIRNHWHVENKLHWRLDVVMNEDDCKIRRGNAAELFSGIRHIAINILTNDKVFKAGLRRKMRKAAMDRNYLASVLTGSGLS | soluble |
| GSHMESGYAQNGDLEDAELDDYSFSCYSQLEVNGSQHSLTCAFEDPDVNTTNLEFEICGALVEVKCLNFRKLQEIYFIETKKFLLIGKSNICVKVGEKSLTCKKIDLTTIVKPEAPFDLSVVYREGANDFVVTFNTSHLQKKYVKVLMHDVAYRQEKDENKWTHVNLSSTKLTLLQRKLQPAAMYEIKVRSIPDHYFKGFWSEWSPSYYFRTPEINNSSGEMD | soluble |
| MHAILNTFKSGVGDCVFMRLIKDDATFSIMIDCGKYTPEINLFIKEKLHKHIDLLIVTHIDDDHINGVCEMLIAMPEITIGKIFYNCYQLLSGEKIAALTKIVSSDIEILTQNLPKQRTDTNGKINMEHASVLASILLKNPQWNSAWEKTFYIENSLEPYPLGDGLGQLVFISPTSSELKTLDMNFAREYLRLTRHEVINAPFEGRETLFELVSRLVSMKIREREYVKKQKIAGLIDKYSVERWKKAKDFEPSGITDENKGSIAFIWEYKDTKVLFMGDAEPDIVKTAIVNKYGKVDNMKAIKVSHHGSKHSTSKELMEVIDSFDYFITGGSVGDKPSMETLVKIVDRGDNKVRTIHYNYDRNILMKDMASDESVELRQKYNFQIDTNNELEFEY | not soluble |
| GINLTPEEKFEVFGDFDPDQYEEEVRERWGNTDAYRQSKEKTASYTKEDWQRIQDEADELTRRFVALMDAGEPADSEGAMDAAEDHRQGIARNHYDCGYEMHTCLGEMYVSDERFTRNIDAAKPGLAAYMRDAILANAVRHTP | soluble |
| MGSDKIHHHHHHMQKEQCYMCEKSATSAEHVPPKCLFPEFKDAKKNLRVNLITVPSCDEHNGKKSHDDEFLMVSIAGIIGNNSIGYQHYSGKIQRALRRTSYKLLEKVFLRKELVRIGDENKFIEILWGTPDYERLINCFSHIAYGIYHHHFKQKFYGVLKPYLGFLHTNEQNPKAFKAFIKEKVRVELADEPKYGDNLEVFYYQFTKPDNFGIFLVKLCFYQNVDVFVSYMPSGAQKPTHLGFELMNRGIKTIITLGDKEYEFN | not soluble |
| ALMGGIVDVEGAQNSAEVEELARFAVDEHNKKENALLQFSRLVKAKQQVVSGIMHHLTVEVIEGGKKKVYEAKVWVQAWLNSKKLHEFSPI | soluble |
| FDVERKAAPAIAESDLRVASFNVLNYFTSVADSGNNNPTGQNRGATNHDEFLIQQAKIVSAMNKMDADIIGLMEVENNGFGDGSAVQNLVDALNAEIDDADDHYTYVEIADKDKYQEEYFGSDAIMVAILYRAKVVTPKEAAKVIFTPEQHIAENTITRKDGAESNPAYDKYQRHSLLQTFTVQESGEDLSIVVNHFKSKGSECIEEWIAGVEDSEPADLQGNCNNFRVSAAHAVGEALKDVKGDVLLMGDLNAYGMEDPLLTLTDYSKEKYGRDIYTAGYTTINGGELQVEQTQIKQGYGLNNLNTLLHGTDTFSYTYSGELGNLDHALASNSLAQKVVAIEDWHINSLESNLFEYGSKYTGDMPKYKDAFSASDHDPVIIAIDLPDTDIDLP | not soluble |
| MGSDKIHHHHHHMNITIATLGELLVEFLAKKENQGFSSPGEFWGPYPSGAPAIFADQVAKLGFRSLLFSCVGNDAFGVMNITRLSRDGVNVQGISVLPNATTGSAFVSYRSQAQRDFIFNMPDSACGLLSADHLDETLLRQYRHFHIMGSSLFSFRLIDAVRKAISIVKENGGTISFDPNIRKEMLKIREMSQAFEYILDYTDFFLPSDGELDYFGLSKSRDEEKIVARLHKRGIAHVIIKRGARGASYYSKDEQHHVAGYPVKVVDPTGAGDCFGATFVSLFLAGYSVPDALAHANAAGSLAISARGPMEGTSTLAQIKELMRQQN | not soluble |
| MGSDKIHHHHHHMIQHKPDLIFLDINLPDINGIDFAEQVQSILPEVHIVFITAYDEYAVKAFELNAIDYVMKPVQRDRLNRTINRITDRKTVEPLRSQTDSKIISCFQTLHFQKGSEIGKAEPIDVNWRTAKARELFAYLVQHRKQPVRKDVLLEFFWPESDVKKGYAQLYSAIYQIRKMLDSLQMNSTVVSFDKSYKLHLNGTKLDVEEWERELRQLPNITEDTLPSYRRLLETYKGDYLAEEAYLWAENERERLRTLYHSTFNKVTTYYLECGYYTDAITLCQRVQTLHPLMETSYFLLMQVYAKMGDNHSVKSQYEKLNHVLEAEYGIHTSDSIENWYNEWKKQLQ | not soluble |
| RIWRIIPDTSVIIDGRLSSRIKSGEFGSAEVIIPEAVVSELEAQANKGREIGFKGLEELSELRKLADRGDIQLKFSGVQPSLEEIKLSREGRVDALIRQTALDEGGLFVSEDRVQSLIARAKGLDVEYMHPKV | not soluble |
| MSLTERRQATAIVRAHGHTSLARLTLLEDKSYCFSPSGESLIAFVQRGRGAIALGDPIGPARDREAIIQQFLRECQQNDWLPAFYQVLPDDLPLYQRQGLASDQIGQEAVIPLQDFSLQGKRGRGFRSTLSRLERAGYRFEVIPAAEIYPLLPELRFVSDTWLKRMKGPEKRFSVGWFDRDYLTSGSIAVVRSQDGQIQAFANWVEEFQRNELTLDLIRFLPSAESSTMEFLLVNTILAAKDRGFDSFSLGLSALSGLDQLDQPNQVEQGLDYLYRHLDRFYRFQGLHSFKEKFHPDWQPRYFVYPNLAAIPSLVVTLVRADSGDRWLDYFRANDEGHHHHHH | not soluble |
| MTDDSAVESKQKKSKIRKGHWIPVVAGFLRKDGKILVGQRPENNSLAGQWEFPGGKIENGETPEEALARELNEELGIEAEVGELKLACTHSYGDVGILILFYEILYWKGEPRAKHHMMLEWIHPEELKHRNIPEANRKILHKIYKALGLEWRK | soluble |
| MSLNALDPHDALPWIEETTALELSPSQRSAVTLVLASKVSIITGGPGVGKTTILKAILSVLQREKVSVALCAPTGRAAKRLTESTGIEAKTIHRLLEFDPQAFDFKRGRGNPLDASFVVVDETSMVDVVLMQKLVAAIPDHAAVVFVGDVDQLPSVGPGAVLADMISSEAIPTVRLTEIFRQAAESMIVVNAHRINQGDMPLTAEGEELSDFYVVKAASAEEIHDKVIQLVTERIPKRFGLDAVKDVQVLTPMNKGGVGVHALNAELQAKLNPASEPKVTRFGTTFAPGDKVIQTVNNYDKEVFNGDIGLIEAIDPEAEIATAFFFDHHRAEYDFNDLDELSLAYATSIHKSQGSEYPAVVIPLAMQHFTLLERNLIYTAVTRGRKLVVIVAEPKALTLAIKNCKSKRRLTGLVQRLRESGKQSWQNEGHHHHHH | soluble |
| MGSDKIHHHHHHMARYRVHVNDPLDKEATQLLMNKEELEVTSEHLEKDELMKIIPEVDVLVVRSATKVTADIIEAGKNLKIIARAGIGLDNIDVQKAKEKGIKVLNTPGASAPSVAELAMGLMLACARHIARATVSLKEGKWEKKALKGKELLGKTLGLIGFGNIGQEVAKRALAFGMKIIAYDPAKPETDLPVEYVDLDTLFKESDFISLHVPLTESTRHIINRESIAKMKDGVIIVNTARGGTIDEEALYEEVVSGKVYAAGLDVFEVEPPTDEIRRKLLSLDNVVATPHIGASTAEAQRRVGIELVEKIFKELGI | not soluble |
| MNFNVIICGVGGQGVVLASRLLAITAMNSGFHVNTAETLGMSQREGSVVSHLQFGENIKSSLIPEGSTDLIIGLEVSEVARNIHFLKKDGKIITNSNLILPSARSSNEKYDSEKIINFIKEKVKSTICIDFSKIAKVAGNPKSMNVSVLSAAFYTGFLPLEYEDFLKTIESEIPEKYRDINLNATKLSAETISNMLEGHNE | not soluble |
| MTRQEELAAARAALHDLMTGKRVATVQKDGRRVEFTATSVSDLKKYIAELEVQTGMTQRRRGPAGFYV | soluble |
| MGSQVQKSDEITFSDYLGLMTCVYEWADSYDSKDWDRLRKVIAPTLRIDYRSFLDKLWEAMPAEEFVGMVSSKQVLGDPTLRTQHFIGGTRWEKVSEDEVIGYHQLRVPHQRYKDTTMKEVTMKGHAHSANLHWYKKIDGVWKFAGLKPDIRWGEFDFDRIAEDGRETFGDK | soluble |
| MKDTFRLENQTIYFGTERAISASPQTIWRYLTETDKLKQWFPELEIGELGVNGFWRFILPDFEETMPFTDYAEEKYLGVTWDTGIIYFDLKEQAPHQTLLVFSESLPENFTTPRHKDIAGWSIVLNRLKQVVETPDAAPEKIDFPQIENHYLEKLTNLEN | soluble |
